According to publication PMC7688924, “α-Galactosidase and Sucrose-Kinase Relationships in a Bi-functional AgaSK Enzyme Produced by the Human Gut Symbiont Ruminococcus gnavus E1” (Frontiers in Microbiology, 2020):

B1: RgSK (Mediterraneibacter gnavus) (protein)
chain: RLYEKVQKWCDGNAENRVVISIYGGSGSGKTTLATALQQYFLNDGTECYLLSGDDYPHRIPKRNDEERMRVYKEAGEDGLRGYLGTKKEIDFDRINEVLAAFHEGKDSITLRHMGREDGEISLEETDFSGISVLLLEWTHGGSDDLHGVDLPVFLESSPGETRERRIRRNRDENAASPFICRVVELEQEKLEVQRKNAGLIVGKDGSVYEQ
notes: isolated C-terminal sucrose kinase domain, Arg-724 to Gln-935, C-terminal His6 tag, E. coli BL21(DE3), pOPINE, 23,898 Da
B2: RgAgaSK (Mediterraneibacter gnavus) (protein)
chain: MAIIYNPNKKIFTLHTAHTTYQMQVDPLGYLLHLYYGEKTNSSMDYVLTYADRGFSGNPYAAGMDRTYSLDALPQEYPSLGTGDYRNIALNIKNEKGVESADLLFKSYEIRNGKYRLQGLPAVWADEKEAQTLEIVLADENAQVEVHLLYGVLEENDVITRSVRIKNTGTGQITIEKAAAACLDFVQGEFDVLRFYGKHAMERNLERTPLGHGTIAFGSRRGTSSHQYNPAVILAEKGTTETAGSCYGMLFVYSGNFSCEAEKDQFNQTRLLLGLNEELFSYPLASGETFTVPEVILSYSAEGLSALSQQYHNCIRNHVCRSKYVHMQRPVLINSWEAAYFDFTGDTIVDLAKEAASLGIDMVVMDDGWFGKRNDDNSSLGDWQVNETKLGGSLAELITRVHEQGMKFGIWIEPEMINEDSDLYRAHPDWAIRIQGKKPVRSRNQLLLDFSRKEVRDCVFDQICVVLDQGKIDYVKWDMNRSMADVYAGNLSYDYVLGVYDFMERLCSRYPDLLLEGCSGGGGRFDAGMLYYSPQIWCSDNTDAINRTRIQYGTSFFYPVSAMGAHVSAVPNHQTGRVTSFHTRGVTAMAGTFGYELNPALLSDEEKQQIREQIKTYKKYETLINEGTYWRLSDPFTDEIAAWMSVSEEQDHALVSVVRLMAEANQATVYVRLRGLKPDAVYLEEQSGRQYSGAALMHAGIPLPPFTEEYEAYQFAFTELKEAGRLYEKVQKWCDGNAENRVVISIYGGSGSGKTTLATALQQYFLNDGTECYLLSGDDYPHRIPKRNDEERMRVYKEAGEDGLRGYLGTKKEIDFDRINEVLAAFHEGKDSITLRHMGREDGEISLEETDFSGISVLLLEWTHGGSDDLHGVDLPVFLESSPGETRERRIRRNRDENAASPFICRVVELEQEKLEVQRKNAGLIVGKDGSVYEQ
notes: full-length bifunctional enzyme (935 residues), produced in E. coli as in Bruel 2011, Ni-NTA and gel filtration, His-tag (C-terminal 6xHis given for recombinant proteins), tetramer
B3: RgAga (Mediterraneibacter gnavus) (protein)
chain: AIIYNPNKKIFTLHTAHTTYQMQVDPLGYLLHLYYGEKTNSSMDYVLTYADRGFSGNPYAAGMDRTYSLDALPQEYPSLGTGDYRNIALNIKNEKGVESADLLFKSYEIRNGKYRLQGLPAVWADEKEAQTLEIVLADENAQVEVHLLYGVLEENDVITRSVRIKNTGTGQITIEKAAAACLDFVQGEFDVLRFYGKHAMERNLERTPLGHGTIAFGSRRGTSSHQYNPAVILAEKGTTETAGSCYGMLFVYSGNFSCEAEKDQFNQTRLLLGLNEELFSYPLASGETFTVPEVILSYSAEGLSALSQQYHNCIRNHVCRSKYVHMQRPVLINSWEAAYFDFTGDTIVDLAKEAASLGIDMVVMDDGWFGKRNDDNSSLGDWQVNETKLGGSLAELITRVHEQGMKFGIWIEPEMINEDSDLYRAHPDWAIRIQGKKPVRSRNQLLLDFSRKEVRDCVFDQICVVLDQGKIDYVKWDMNRSMADVYAGNLSYDYVLGVYDFMERLCSRYPDLLLEGCSGGGGRFDAGMLYYSPQIWCSDNTDAINRTRIQYGTSFFYPVSAMGAHVSAVPNHQTGRVTSFHTRGVTAMAGTFGYELNPALLSDEEKQQIREQIKTYKKYETLINEGTYWRLSDPFTDEIAAWMSVSEEQDHALVSVVRLMAEANQATVYVRLRGLKPDAVYLEEQSGRQYSGAALMHAGIPLPPFTEEYEAYQFAFTELK

Assays:
[1] = substrate: Nc1ncnc2c1ncn2[C@@H]1O[C@H](COP(=O)(O)OP(=O)(O)OP(=O)(O)O)[C@@H](O)[C@H]1O; experiment: bioluminescence ATP consumption assay (luciferin/luciferase); format: biochemical, Mediterraneibacter gnavus; conditions: sucrose 5 mM, pH 8.0, 30 °C, ATP 0-10 mM, […] enzyme
Description: bioluminescence ATP consumption assay (luciferin/luciferase) on RgSK

purified protein = substrate: O=[N+]([O-])c1ccc(O[C@H]2O[C@H](CO)[C@H](O)[C@H](O)[C@H]2O)cc1; experiment: purified protein; conditions: McIlvaine's buffer pH 6.0, 42 °C, pNPGal 0.078-10 mM
[2] = substrate: Nc1ncnc2c1ncn2[C@@H]1O[C@H](COP(=O)(O)OP(=O)(O)OP(=O)(O)O)[C@@H](O)[C@H]1O; experiment: bioluminescence ATP consumption assay (luciferin/luciferase); format: biochemical, Mediterraneibacter gnavus; conditions: sucrose 5 mM, pH 8.0, 30 °C, ATP 0-10 mM, […] enzyme; remark: listed apart in the source
Description: bioluminescence ATP consumption assay (luciferin/luciferase) on […]

Row | Protein | Km [1] [mM] | Vmax [1] [µmol/min] | kcat [1] [s⁻¹] | kcat/Km [1] [M⁻¹ s⁻¹] | Km (purified protein) [mM] | Vmax (purified protein) [µmol/min] | kcat (purified protein) [s⁻¹] | kcat/Km (purified protein) [M⁻¹ s⁻¹] | Km [2] [mM] | Vmax [2] [µmol/min] | kcat [2] [s⁻¹] | kcat/Km [2] [M⁻¹ s⁻¹]
1 | B1 | 6.3 ± 1.8 | 0.0719 | 27.9 ± 4.3 | 4420 | – | – | – | – | – | – | – | –
2 | B2 | – | – | – | – | 1.3 ± 0.2 | 0.179 | 626 | 481000 | 8.4 ± 1.9 | 0.0983 | 38.1 ± 4.8 | 4530
3 | B3 | – | – | – | – | 1.2 ± 0.2 | 0.236 | 827 | 689000 | – | – | – | –
